# Test results taken from article PMC4388618.
# B1: Prune (Pn) (Drosophila melanogaster) (protein)
# chain: MCFLRFLAQARGTLGRHLAEASPVAWAAAPDVSGRKLHLVMGNESCDLDSAVSAVTLAFVYAQRHREHDYVPILNIPRRDYPLKTEVGHLFVKCGIAEPVLLFRDDIPREVVQDVNVILVDHHVSPLAPNVTEILDHRPLEDSSPSFKQLPTLCQLDIDASVGSCATLVAQRYLAEDQPRSTSVAQLLHATIVLDTINFAPAAKRYGPKDEAMVQKLESELNRKDAQRSSLFDELVAARADISKLTLTEVLRKDMKVLQTDRQVVPLAGMPILVRDFVEKSGAEKAVREFGVESNLLVILGMYVSPADGQVQRDLALISLSGQGQFVQRVQQALMESNDPKLELRPHEVDTRFMGGCFLRQHNVQATRKHILPIVKRALLEWEADHACDCDEVYFFKEKPQLGLS
# Substrate: [H][C@@]12COP(=O)(O)O[C@@]1([H])[C@@H](O)[C@H](n1cnc3c(=O)[nH]c(N)nc31)O2
# Experiment: cyclic nucleotide phosphodiesterase assay kit
# Format: biochemical, Drosophila melanogaster
protein,measurement,value
B1,Km,17.97 ± 10.78 µM
same,kcat,0.00123 ± 0.00014 s⁻¹
